Results reported in patent publication US7250265B2, “Method of detecting and evaluating angiotensinogen receptor-modulating compounds using placental cells” (Marshfield Clinic, priority 2001, dated 2007).

How the values were obtained:
[1] = system: AGT receptor on CRL-7548 placental cells; test: Competitive displacement study (unlabeled AGT added at 8 h); type: binding, human
Protocol: (§1) Cell Culture: CRL-7548 placental cells obtained from American Type Culture Collection were cultured in 89% Dulbecco's modification of Eagle medium (DEME) (Cellgro, Herndon, Va.), 10% fetal bovine serum (FBS) (Sigma, St. Louis, Mo.), 1% penicillin-streptomycin (5,000 U/ml and 5,000 μg/ml) (Cellgro) in a humidified atmosphere of 5.0% CO2 and […] at 37° C. The cells were passed in FBS-free DEME before experimentation, seeded in 35 mm diameter plastic wells and cultured for two days to reach about 80-90% confluence.
(§2) Purified AGT was labeled with ^125I using iodobeads Pierce, Rockford, Ill.), 5 mCi/0.5 mg AGT in 0.1 mol/L sodium phosphate buffer, pH 6.0. The bound isotope was separated from the free isotope by gel filtration on Sephadex G-25.
(§3) Labeled AGT, 3 μg, was added to each well containing 1 ml DEME and 2-3×10^4 cells. The cells were harvested at 5 min, and 2, 4, 8, 16 and 24 h, washed five times with DEME, lysed in a buffer containing 0.1 mol/L Tris, 2 mmol/L EDTA, 1% Triton-X 100, 1 μmol/L DTT, pH 7.8, and the radioactivity of the whole lysate measured. Each experiment contained two duplicates and the reported values are the mean of two experiments. The results are presented graphically in FIG. 1
[…] The cells were harvested at 5 min and at 2 intervals through 18 h.

[2] = system: AGT receptor on CRL-7548 placental cells; test: Competitive binding study (unlabeled AGT added at zero time); set-up: species or system human; conditions: prior addition of 100-fold excess of unlabeled AGT, FIG. 2
Protocol: as §1, §2, §3
This Example was carried out as described in Example 1, except that a 100-fold excess of unlabeled AGT was added at zero time. The cells were harvested at 5 min, and 4, 8 and 24 h. […]

[3] = system: CRL-7548 placental cells; test: Acid wash study (surface-bound versus internalized AGT); type: cell-based, human; conditions: for bound AGT removed from the cells by acid wash: 0.2 mol/L acetic acid, 0.5 mol/L NaCl, pH 2.5, 4° C., at 8 h
Protocol: as §1, §2, §3
This Example was carried out as described in Example 1. At 8 h, the cells in one set of duplicate wells were washed five times with DEME. Another set of duplicate samples were incubated with 0.2 mol/L acetic acid, 0.5 mol/L NaCl, pH 2.5, on ice (4° C.) for 6 min, and then washed five times with the acid wash. The control duplicates and the acid-washed duplicates were lysed and radioactivity was measured.

[4] = system: CRL-7459 fibroblasts; test: AGT uptake in other placental cell lines; type: cell-based; conditions: fibroblasts from human placenta at 40 weeks gestation (CRL-7459)
From the text: (§4) The cells used in Examples 1-4 are fibroblasts originally derived from a human placenta obtained at 5 months gestation. Binding studies were also done with fibroblasts derived from a human placenta obtained at 37 weeks gestation (CRL-7458) and with fibroblasts derived from a human placenta at 40 weeks gestation (CRL-7459). These cells also took up AGT.

[5] = system: CRL-7458 fibroblasts; test: AGT uptake in other placental cell lines; type: cell-based; conditions: fibroblasts from human placenta at 37 weeks gestation (CRL-7458)
From the text: as §4

[6] = system: AGT receptor on CRL-7548 placental cells; test: AGT binding: 125I-labeled AGT bound by placental-derived cells; set-up: species or system human; conditions: 3 μg labeled AGT per well, 2-3×10^4 CRL-7548 cells, FIG. 1
Protocol: as §1
The AGT used in the Examples was purified from human plasma as described in Tewksbury (1983) Fed. Proc. 42:2724-2728; and Tewksbury et al. (1981) Biochem. Biophys. Res. Commun. 99:1311-1315. The specific Ang I content was 20 μg Ang I/mg protein. The theoretical value is 21 μg Ang I/mg protein.
as §2
as §3, with “Each experiment contained two duplicates and the reported values are the mean of two experiments. The results are presented graphically in FIG. 1” left out

[7] = from displacement by unlabeled AGT

B1: angiotensinogen (protein, UniProt P01019 25-476, looked up)
Angiotensinogen: DRVYIHPFHLVIHNESTCEQLAKANAGKPKDPTFIPAPIQAKTSPVDEKALQDQLVLVAAKLDTEDKLRAAMVGMLANFLGFRIYGMHSELWGVVHGATVLSPTAVFGTLASLYLGALDHTADRLQAILGVPWKDKNCTSRLDAHKVLSALQAVQGLLVAQGRADSQAQLLLSTVVGVFTAPGLHLKQPFVQGLALYTPVVLPRSLDFTELDVAAEKIDRFMQAVTGWKTGCSLMGASVDSTLAFNTYVHFQGKMKGFSLLAEPQEFWVDNSTSVSVPMLSGMGTFQHWSDIQDNFSVTQVPFTESACLLLIQPHYASDLDKVEGLTFQQNSLNWMKKLSPRTIHLTMPQLVLQGSYDLQDLLAQAELPAILHTELNLQKLSNDRIRVGEVLNSIFFELEADEREPTESTQQLNKPEVLEVTLNRPFLFAVYDQSATALHFLGRVANPLSTA
notes: AGT purified from human plasma; specific Ang I content 20 μg Ang I/mg protein
In the case of B1, the “bound 125I-AGT displaced” value ([1]; excess of unlabeled AGT added, FIG. 3) is reported as 70%, the “share of AGT bound to an AGT-specific receptor” value [1, 7] is reported as 70% and the “share of total binding attributed to nonspecific binding” value [1, 7] is reported as “approximately 30%”. For the same molecule, the “decrease in maximal binding of 125I-AGT” value [2] was 54%, the “bound AGT removed from the cells by acid wash” value [3] was 46% and the “bound AGT internalized by the cells” value ([3]; inferred from acid wash at 8 h) was “about half”. For the same molecule, the AGT uptake [4] was “took up AGT” and the AGT uptake [5] was “took up AGT”.

B2: ^125I-AGT: Purified AGT labeled with ^125I using iodobeads (protein, UniProt P01019 25-476, looked up)
Angiotensinogen: B1 Angiotensinogen
modifications: 125I label
notes: Purified AGT labeled with ^125I using iodobeads
B2 was tested, and the “bound AGT removed from the cells by acid wash” value [3] was 46% and the “time to saturation of binding by placental-derived cells” value [6] was 2 to 4 h.
